Reference: patent US20100111941A1, “METHODS FOR TREATING CANCER” (priority 2006, published 2010)

Tests used:
[1] = test system: HCT116 tumor xenografts (human colorectal cancer cells); settings: for tumor weight reduced by, compared to vehicle control: day 14, rNAPc2/pro 300 μg/kg daily IP, 5-FU 10 mg/kg every-other-day IP, AVASTIN 0.5 mg/kg twice-weekly IP, 14 days, 6 mice/group
Procedure: To determine the effect of rNAPc2/pro in combination with 5-fluorouracil (5-FU) in colorectal cancer, a murine xenograft colorectal tumor model was used. Human colorectal cancer cells (HCT116) were cultured in DMEM medium supplemented with 10% fetal bovine serum (FBS), harvested at log growth phase, enumerated and resuspended in HBSS buffer. Eight to ten week old female nude mice (NU/NU) were inoculated subcutaneously with 1×10^7 cells/mouse in a volume of 100 μl. Tumors were allowed to develop to an average size of 50 to 100 mm^3 before the treatment started (defined as day 0). HCT116 tumor xenograft-bearing mice were randomized into various treatment conditions and the treatment regimens lasted for 14 days.
The mice were treated as follows (6 mice/group):
2)rNAPc2/pro (300 μg/kg, daily IP injection for 14 days);
3) LOVENOX® (1.5 mg/kg, daily IP injection for 14 days);
4) 5-FU (10 mg/kg, every-other-day IP injection for 14 days);
5) AVASTIN® (0.5 mg/kg, twice-weekly IP injection for 14 days);
10) LOVENOX®+AVASTIN®; and
The mice were monitored every-other-day for body weight, signs of morbidity (i.e., hemorrhage) and mortality. On day 14, mice were extirpated for HCT116 tumor xenografts and the tumors were weighed and measured. Tumor size was calculated as follows: tumor volume (size)=(length)×(width^2)/2 (mm^3).

[2] = test system: Human colorectal cancer cells (HCT116); assay: murine colorectal cancer-hepatic metastasis mouse model (HCT116); assay type: in vivo, nude mice (NU/NU); settings: for Hepatic metastasis-free events: rNAPc2/pro 300 μg/kg daily IP for 28 days, CPT-11 100 mg/kg once-weekly IP for 4 weeks, livers removed day 42, 8 mice/group
Procedure: To determine the effect of rNAPc2/pro in treating hepatic tumor metastasis, a murine colorectal cancer-hepatic metastasis mouse model was used.
(§1) The mice were treated as follows (8 mice/group):
2) HCT116/vehicle control;
3) HCT116/rNAPc2/pro (300 μg/kg, daily IP injection for 28 days);
4) HCT116/CPT-11 (100 mg/kg, once-weekly IP injection for 4 weeks); and
On day 42, the livers were surgically removed, weighed and the number of liver surface metastases were counted in a blinded fashion. The other internal organs were examined for signs of hemorrhage. […] In some of the mice, no hepatic metastases were observed (Table 2).

[3] = test system: lung carcinoma tumors and melanoma tumors; settings: mouse models; Hembrough et al., Cancer Res. 63:2997-3000 (2003); cited from earlier work
[4] = test system: angiogenesis; settings: Hembrough et al., Cancer Res. 63:2997-3000 (2003); cited from earlier work
[5] = target: T1, fVIIa/TF complex (Homo sapiens, UniProt P08709+P13726); settings: when fXa, or a catalytically active or inactive derivative thereof, is present; cited from earlier work
T1 construct: Lyophilized, purified, recombinant human fVlla is reconstituted in HBS

[6] = test system: intestinal adenomas and adenocarcinomas; assay: murine spontaneous intestinal neoplasia mouse model (Min mouse)
Procedure: To determine the effect of rNAPc2/pro in treating intestinal adenomas and adenocarcinomas, a murine spontaneous intestinal neoplasia mouse model was used: the Min mouse (The Jackson Laboratory, Bar Harbor, Me., USA).
Four to five week old Apc^Min/+ or syngenic wild-type control (age- and sex-matched) were randomized into various treatment conditions and the treatment regimens lasted for 10 to 11 weeks.
The mice were treated as follows:
1) Wild-type/vehicle control (3 mice);
2) Wild-type/rNAPc2/pro (100 μg/kg, daily IP injection) (3 mice);
3) Apc^Min/+/vehicle control (6 mice);
4) Apc^Min/+/rNAPc2/pro (6 mice); and
5) Apc^Min/+/LOVENOX® (500 μg/kg, daily IP injection) (6 mice).
The mice were monitored every-other-day for body weight, signs of morbidity (i.e. hemorrhage) and mortality. On week 16, the intestines were removed, separated into proximal, middle and distal small intestine and colon, formed into “Swiss rolls” and processed for analysis. Mice were injected with 4 mg/mouse BrdU 2 h prior to harvest.

[7] = test system: Murine colorectal cancer cells (CT26); assay: murine colorectal cancer-pulmonary metastasis mouse model (CT26); assay type: in vivo, BALB/c mice; settings: for Number of mice with no observable lung surface metastases: 8 mice/group
Procedure: To determine the effect of rNAPc2/pro in treating pulmonary tumor metastasis, a murine colorectal cancer-pulmonary metastasis mouse model was used. […] Nine to eleven week old female syngenic BALB/c mice were inoculated via tail vein injection with 1×10^6 cells/mouse in a volume of 100 μl (defined as day 0).
as §1
3) CT26/rNAPc2/pro (10 μg/kg/day);
4) CT26/rNAPc2/pro (30 μg/kg/day);
5) CT26/rNAPc2/pro (100 μg/kg/day);
6) CT26/rNAPc2/pro (300 μg/kg/day);
7) CT26/rNAPc2/pro (1 mg/kg/day);
8) CT26/rNAPc2/pro (2.5 mg/kg/day); and
9) CT26/LOVENOX® (1.5 mg/kg/day, IP injection).
On day 11, the lungs were surgically removed, weighed and the number of lung surface metastases were counted in a blinded fashion. The other internal organs were examined for signs of hemorrhage. […] In some of the mice, no lung surface metastases were observed (Table 1). rNAPc2/pro was well-tolerated up to 2.5 mg/kg/day in mice with no hemorrhage-related mortality. […] No significant difference in animal body weight was observed between all experimental groups.

[8] = target: T2, Factor Xa (Homo sapiens, UniProt P00742); settings: selective = at least 10-fold higher potency than on related enzymes; cited from earlier work
T2 construct: made in house
T2 sequence (P00742 235-488 limits assumed): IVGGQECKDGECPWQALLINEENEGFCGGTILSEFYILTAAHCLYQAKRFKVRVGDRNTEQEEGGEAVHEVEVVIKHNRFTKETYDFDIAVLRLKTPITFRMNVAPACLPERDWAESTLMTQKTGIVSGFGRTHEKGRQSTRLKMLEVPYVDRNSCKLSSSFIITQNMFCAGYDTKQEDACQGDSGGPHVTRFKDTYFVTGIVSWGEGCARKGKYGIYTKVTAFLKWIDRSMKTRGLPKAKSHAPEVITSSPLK
T2 sequence (P00742 41-179 limits assumed): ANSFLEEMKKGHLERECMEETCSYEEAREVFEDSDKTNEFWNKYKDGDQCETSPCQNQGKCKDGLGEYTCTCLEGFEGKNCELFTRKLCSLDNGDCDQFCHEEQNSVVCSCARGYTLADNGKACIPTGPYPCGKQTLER

T1 sequence (P08709 213-466 limits assumed): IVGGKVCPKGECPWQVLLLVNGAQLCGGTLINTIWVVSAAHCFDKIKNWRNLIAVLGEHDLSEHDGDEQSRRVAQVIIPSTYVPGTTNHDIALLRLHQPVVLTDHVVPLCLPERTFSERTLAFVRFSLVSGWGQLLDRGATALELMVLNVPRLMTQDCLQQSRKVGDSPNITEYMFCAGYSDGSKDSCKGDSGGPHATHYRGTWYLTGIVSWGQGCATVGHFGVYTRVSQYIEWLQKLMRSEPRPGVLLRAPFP
T1 sequence (P08709 61-212 limits assumed): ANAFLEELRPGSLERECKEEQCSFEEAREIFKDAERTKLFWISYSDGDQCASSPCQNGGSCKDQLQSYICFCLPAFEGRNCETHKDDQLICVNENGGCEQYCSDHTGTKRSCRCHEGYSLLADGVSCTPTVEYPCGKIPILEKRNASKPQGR
T1 sequence (P13726 33-295): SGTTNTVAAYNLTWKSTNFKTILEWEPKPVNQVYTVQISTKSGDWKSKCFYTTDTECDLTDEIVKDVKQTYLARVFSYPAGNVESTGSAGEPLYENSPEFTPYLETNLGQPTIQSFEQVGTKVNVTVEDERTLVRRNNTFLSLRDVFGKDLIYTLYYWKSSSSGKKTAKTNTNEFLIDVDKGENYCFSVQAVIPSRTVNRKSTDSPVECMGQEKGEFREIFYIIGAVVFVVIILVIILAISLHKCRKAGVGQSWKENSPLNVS
T1 sequence (P00742 235-488 partner limits assumed): as the sequence (P00742 235-488 limits assumed) above
T1 sequence (P00742 41-179 partner limits assumed): as the sequence (P00742 41-179 limits assumed) above

Molecule: O=c1[nH]cc(F)c(=O)[nH]1 [5-FU, 5-fluorouracil, reference compound]
- tumor weight reduced by, compared to vehicle control [1]: 41%

Molecule: CCc1c2c(nc3ccc(OC(=O)N4CCC(N5CCCCC5)CC4)cc13)-c1cc3c(c(=O)n1C2)COC(=O)[C@]3(O)CC [CPT-11, irinotecan, reference compound]
- Hepatic metastasis-free events [2]: 0%

Molecule: AVASTIN®: anti-VEGF antibody bevacizumab (Genentech) [reference compound]
- tumor weight reduced by, compared to vehicle control [1]: 63%

Molecule: TFPI: reported with rNAPc2 by Hembrough et al. to decrease tumor growth in mouse models [reference compound]
- growth of lung carcinoma tumors and melanoma tumors [3]: allegedly decrease the growth

B1: rNAPc2: recombinant protein of the NAP family, single chain, non-glycosylated 85 amino acid protein (SEQ ID NO: 3) (protein, listed as Ancylostoma caninum)
chain: KATMQCGENEKYDSCGSKECDKKCKYDGVEEEDDEEPNVPCLVRVCHQDCVCEEGFYRNKDDKCVSAEDCELDNMDFIYPGTRN
- growth of lung carcinoma tumors and melanoma tumors [3]: allegedly decrease the growth
- inhibition of angiogenesis [4]: potent inhibitor of angiogenesis
- selective inhibition of the fVIIa/TF complex [5]: selective inhibition of the fVIIa/TF complex
- formation of intestinal adenomas and adenocarcinomas ([6]; Apc^Min/+ mice, 100 μg/kg daily IP, long-term administration (10 to 11 weeks), analysis on week 16): suppressed formation of intestinal adenomas and adenocarcinomas
- tolerability (major hemorrhage or other adverse effects) ([6]; dosing regimens used in these studies, recipient mice): well-tolerated up to a three month period

B2: rNAPc2/pro: recombinant protein having the amino acid sequence of rNAPc2 modified to add a proline residue to the C-terminus (SEQ ID NO: 4) (protein, listed as Ancylostoma caninum)
chain: KATMQCGENEKYDSCGSKECDKKCKYDGVEEEDDEEPNVPCLVRVCHQDCVCEEGFYRNKDDKCVSAEDCELDNMDFIYPGTRNP
- tumor weight reduced by, compared to vehicle control [1]: 31%
- tolerability (hemorrhage or other adverse effects) ([1]; doses and dosing regimens of rNAPc2/pro used in the murine model of colorectal cancer): well tolerated by the recipient mice without major complications of hemorrhage or other adverse effects
- number of liver surface metastases ([2]; 300 μg/kg daily IP for 28 days, compared to vehicle control mice, day 42, FIG. 10): reduced the number of liver surface metastases
- liver mass ([2]; 300 μg/kg daily IP for 28 days, compared to vehicle control mice, day 42, FIG. 11): reduced liver mass
- Hepatic metastasis-free events [2]: 0%
- effect with CPT-11 in inhibiting hepatic metastases ([2]; rNAPc2/pro 300 μg/kg daily IP in combination with CPT-11 100 mg/kg once-weekly IP): synergistic effect
- selective inhibition of the fVIIa/TF complex [5]: selective inhibition of the fVIIa/TF complex
- Number of mice with no observable lung surface metastases ([7]; 10 μg/kg/day, day 11): 1
- Number of mice with no observable lung surface metastases ([7]; 30 μg/kg/day, day 11): 0
- Number of mice with no observable lung surface metastases ([7]; 100 μg/kg/day, day 11): 1
- Number of mice with no observable lung surface metastases ([7]; 300 μg/kg/day, day 11): 1
- Number of mice with no observable lung surface metastases ([7]; 1 mg/kg/day, day 11): 0
- local hemorrhage in internal organs ([7]; 2.5 mg/kg rNAPc2/pro, 1.5 mg/kg LOVENOX, some of the mice): some local hemorrhage was noticed in internal organs
- Number of mice with no observable lung surface metastases ([7]; 2.5 mg/kg/day, day 11): 1
- number of lung surface metastases ([7]; compared to saline control mice, dose-dependent (10 μg/kg/day to 2.5 mg/kg/day), day 11, FIG. 8): reduced the number of lung surface metastases
- lung mass ([7]; compared to saline control mice, dose-dependent, day 11, FIG. 9): reduced lung mass
- dose well-tolerated with no hemorrhage-related mortality ([7]; mice, 11 days of treatment): up to 2.5 mg/kg/day

B3: NAP6: 75-amino acid NAP protein (SEQ ID NO: 2) originally isolated from the hookworm Ancylostoma caninum (protein, listed as Ancylostoma caninum)
chain: LAYPECGENEWLDVCGTKKPCEAKCSEEEEEDPICRSFSCPGPAACVCEDGFYRDTVIGDCVKEEECDQHEIIHV
- selective inhibition of Factor Xa [8]: selective inhibition of Factor Xa

B4: NAP5: 77-amino acid NAP protein (SEQ ID NO: 1) originally isolated from the hookworm Ancylostoma caninum (protein, listed as Ancylostoma caninum)
chain: KAYPECGENEWLDDCGTQKPCEAKCNEEPPEEEDPICRSRGCLLPPACVCKDGFYRDTVIGDCVREEECDQHEIIHV
- selective inhibition of Factor Xa [8]: selective inhibition of Factor Xa
